Assay results from paper PMC7199733 (Cell, 2020).

Tests used:
[1] = target: MERS VHH-55 (His-tagged, mammalian expression) (llama); assay: SPR
[2] = target: DPP4 protein (recombinant, soluble) (UniProt P27487 40-766); assay: BLI
MERS-CoV S1 protein = MERS-CoV S1 protein (MERS-CoV England1, UniProt K9N5Q8)
MERS-CoV RBD protein = MERS-CoV RBD protein (MERS-CoV England1, UniProt K9N5Q8)
[3] = target: MERS-CoV RBD (crystallised, tag and glycans removed) (MERS-CoV England1, UniProt K9N5Q8)

DPP4 protein (recombinant, soluble), sequence (P27487 40-766): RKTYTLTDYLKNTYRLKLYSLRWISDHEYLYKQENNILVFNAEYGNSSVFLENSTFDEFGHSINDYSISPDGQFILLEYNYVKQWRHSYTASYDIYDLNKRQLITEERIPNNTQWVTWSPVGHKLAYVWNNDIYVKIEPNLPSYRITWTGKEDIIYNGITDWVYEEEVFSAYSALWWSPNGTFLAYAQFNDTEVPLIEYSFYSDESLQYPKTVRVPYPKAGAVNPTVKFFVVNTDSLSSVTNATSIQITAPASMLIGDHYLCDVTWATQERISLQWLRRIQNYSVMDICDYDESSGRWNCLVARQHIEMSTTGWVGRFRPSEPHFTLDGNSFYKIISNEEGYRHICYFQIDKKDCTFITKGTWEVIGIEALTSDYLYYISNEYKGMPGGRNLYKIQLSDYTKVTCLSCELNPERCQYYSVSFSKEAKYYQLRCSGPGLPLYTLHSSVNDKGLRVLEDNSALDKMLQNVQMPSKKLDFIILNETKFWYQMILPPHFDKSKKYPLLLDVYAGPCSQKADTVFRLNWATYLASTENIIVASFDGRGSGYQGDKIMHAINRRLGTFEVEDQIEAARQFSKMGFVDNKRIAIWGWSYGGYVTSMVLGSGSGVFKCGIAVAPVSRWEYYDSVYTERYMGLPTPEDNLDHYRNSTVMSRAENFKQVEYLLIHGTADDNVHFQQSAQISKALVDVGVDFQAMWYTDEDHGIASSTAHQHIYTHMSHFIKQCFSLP
MERS-CoV S1 protein, sequence (K9N5Q8 18-751): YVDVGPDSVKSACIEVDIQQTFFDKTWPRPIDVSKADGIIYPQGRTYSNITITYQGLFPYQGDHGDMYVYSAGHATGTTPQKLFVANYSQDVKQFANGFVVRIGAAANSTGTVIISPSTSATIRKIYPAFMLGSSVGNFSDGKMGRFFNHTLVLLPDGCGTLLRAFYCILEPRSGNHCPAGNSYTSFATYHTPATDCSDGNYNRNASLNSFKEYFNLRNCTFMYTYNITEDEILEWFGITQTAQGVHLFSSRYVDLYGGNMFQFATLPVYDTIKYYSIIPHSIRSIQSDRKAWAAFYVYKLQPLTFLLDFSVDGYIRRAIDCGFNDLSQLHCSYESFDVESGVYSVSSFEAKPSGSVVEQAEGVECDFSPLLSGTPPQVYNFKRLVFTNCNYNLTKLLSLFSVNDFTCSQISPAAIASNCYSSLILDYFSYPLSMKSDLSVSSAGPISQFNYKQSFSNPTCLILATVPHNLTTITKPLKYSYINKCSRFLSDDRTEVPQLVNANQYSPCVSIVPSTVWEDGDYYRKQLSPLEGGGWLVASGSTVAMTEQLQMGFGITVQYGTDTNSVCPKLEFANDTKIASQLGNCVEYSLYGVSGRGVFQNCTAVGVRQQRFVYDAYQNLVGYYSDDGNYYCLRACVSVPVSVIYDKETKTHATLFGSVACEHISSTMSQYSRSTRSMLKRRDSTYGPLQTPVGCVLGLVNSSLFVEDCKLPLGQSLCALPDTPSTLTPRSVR

**Q.** With “MERS-CoV RBD protein (from UniProt K9N5Q8 367-589) (domain or fragment)” as the molecule, how does the Kd [1] read?
**A.** 0.0792 nM

B1: Fc-tagged MERS-CoV RBD (domain or fragment)
chain: EAKPSGSVVEQAEGVECDFSPLLSGTPPQVYNFKRLVFTNCNYNLTKLLSLFSVNDFTCSQISPAAIASNCYSSLILDYFSYPLSMKSDLSVSSAGPISQFNYKQSFSNPTCLILATVPHNLTTITKPLKYSYINKCSRFLSDDRTEVPQLVNANQYSPCVSIVPSTVWEDGDYYRKQLSPLEGGGWLVASGSTVAMTEQLQMGFGITVQYGTDTNSVCPKLE
**Q.** Does B1 bind [2]?
**A.** binds

B2: MERS VHH-55 (VHH)
VHH: QVQLQESGGGLVQAGGSLRLSCVASGSIFSINAMDWYRQAPGKQRELVAGITSGGSTNYGDFVKGRFTISRDNAKNTVYLQMDSLKPEDTAVYYCAAEVGGWGPPRPDYWGHGTQVTVSS
**Q.** Does B2 bind (MERS-CoV S1 protein)?
**A.** binds

**Q.** Does B2 bind (MERS-CoV RBD protein)?
**A.** binds

**Q.** Does B2 bind [3]?
**A.** binds
